Here are results for one molecule from US20070196377A1 (Daiichi Sankyo, published 2007).

The experiment concerns the target Rac1 expressed as an N-terminal GST-fusion protein (Bos taurus (Bovine), UniProt P62998 1-189). The experiment is described as follows: GST pull-down, anti-FLAG Western blot. As to the method:
Each cell lysate was subjected to a pull-down assay for detecting the binding of the hj03796 DH/PH, or the proto-Db1 DH/PH, to a Rho family protein. 300 μL of each cell lysate, 20 μL of Glutathione Sepharose 4B in the lysis buffer, and 100 μL of the lysis buffer were mixed. Each sample was prepared in such a way that the final concentration of MgCl₂ and dithiothreitol (DTT) was 1 mM. After reacting at 4° C. for 1 hour with rotating by rotator, each sample washed three times with 1 mL of cold lysis buffer (the final concentration of MgCl₂ was 1 mM) by centrifigation at 1,000 rpm for 15 seconds at 4° C. After washing and removing the supernatant, the Glutathione Sepharose 4B was added with 40 μL of a solution that was prepared by mixing SDS-PAGE sample buffer (the same composition as in Example 2) with an equal volume of the lysis buffer. After that, it was mixed with a mixer and subjected to a heat treatment at 100° C. for 5 minutes, to prepare a sample for electrophoresis. SDS-polyacrylamide gel electrophoresis was carried out, and then the gel was equilibrated for 5 minutes or more in a blotting buffer (the same composition as in Example 2). The proteins were transferred onto a PVDF membrane. After blotting, the PVDF membrane was subjected to blocking at 4° C. overnight, in TBS-T+BA (the same composition as in Example 2). […]

B1: proto-Db1 DH/PH (C-terminal FLAG-tagged protein) (other)
chain: MAVLKNHVLNELIQTERVYVRELYTVLLGYRAEMDNPEMFDLMPPLLRNKKDILFGNMAEIYEFHNDIFLSSLENCAHAPERVGPCFLERKDDFQMYAKYCQNKPRSETIWRKYSECAFFQECQRKLKHRLRLDSYLLKPVQRITKYQLLLKELLKYSKDCEGSALLKKALDAMLDLLKSVNDSMHQIAINGYIGNLNELGKMIMQGGFSVWIGHKKGATKMKDLARFKPMQRHLFLYEKAIVFCKRRVESGEGSDRYPSYSFKHCWKMDEVGITEYVKGDNRKFEIWYGEKEEVYIVQASNVDVKMTWLKEIRNILLKQ
notes: Positive control; also called DH/PH domain of proto Db1; deletion mutant of proto-Db1; not shown: C-terminal FLAG tag of vector pFLAG-CMV5a
With B1, the binding result was “no binding”.
